B1: MRTF residues 2–67: MRTF-A N-terminal residues 2–67 containing NES1 (protein, UniProt Q8K4J6 2-67, looked up, fragment)
chain: TLLEPEMLMMAVQSVLQLKLQQRRTREELVSQGIMPPLKSPAAFHEQRRSLERARTEDYLKRKIRS
B2: MRTF-A(67–199) WT: recombinant MRTF-A(67–199), intact RPEL domain (protein, UniProt Q8K4J6 67-199, looked up, fragment)
chain: SRPERAELVRMHILEETSAEPSLQAKQLKLKRARLADDLNEKIAQRPGPMELVEKNILPVESSLKEAIIVGQVNYPKVADSSSFDEDSSDALSPEQPASHESQGSVPSPLESRVSDPLPSATSISPTQVLSQL

Legend:
Crm1 = assay: GST pulldown of recombinant Crm1; assay type: binding; settings: Ran 1–180 Q69L, 3 hr at 4°C
Procedure: For GST pulldown assays, glutathione-sepharose was saturated with GST-fusion proteins, washed in binding buffer (50 mM Tris-HCl pH 7.5, 100 mM NaCl, 10 mM MgCl2, 0.05% NP-40), and incubated with purified recombinant Crm1, Ran(1–180) Q69L or ERK2 for 3 hr at 4°C. After four washes with binding buffer, proteins were eluted in SDS loading buffer for analysis. For kinase assays, glutathione-Sepharose was saturated with GST-MRTF 2–199, washed in binding buffer, and incubated with purified recombinant ERK2 and actin in binding buffer with 250 μM ATP and 10 mg/ml BSA, at 30°C. The reaction was stopped by addition of SDS loading buffer.

G-actin = molecular target: T1, G-actin (Oryctolagus cuniculus, UniProt P68135); assay: Size exclusion chromatography of G-actin / MRTF-A(67–199) complexes; assay type: binding; settings: SEC, recombinant MRTF-A(67–199)
T1 construct: Actin was prepared as described ([Mouilleron et al., 2008]); from tissue; host or cells: rabbit skeletal muscle (own knowledge of the cited method)
Procedure: GST-fusions were expressed in E. coli Rosetta (DE3) pLysS (Novagen). Lysis was in 50 mM Tris-HCl pH 7.5, 300 mM NaCl, 1% TX-100, 5 mM DTT, 10 mM EDTA pH 8, 1 mM PMSF, 15 μg/mL Benzamidine, followed by passage through a French press. Following adsorption onto glutathione-Sepharose, proteins were recovered by cleavage with GST-3C protease at 4°C overnight in 50 mM Tris-HCl (pH 7.5), 100 mM NaCl, 1 mM DTT. Crm1 and Ran(1–180) Q69L were purified as described ([Güttler et al., 2010]).
Preparation of LatB-actin and fluorescence polarisation anisotropy assay were described ([Guettler et al., 2008]). Size exclusion chromatography was on Superdex 200 column equilibrated in 20 mM Tris (pH 8), 100 mM NaCl, 3 mM MgCl2, 0.2 mM EGTA, 0.3 mM TCEP [(tris(2-carboxyethyl)phosphine)], 5% (v/v) glycerol, calibrated with globular proteins of known molecular weight.

Row | Molecule | recovery of recombinant Crm1 (Crm1) | apparent molecular mass of G-actin complex (G-actin; Superdex 200, 20 mM Tris (pH 8), 100 mM NaCl, 3 mM MgCl2, 0.2 mM EGTA, 0.3 mM TCEP, 5% glycerol) [kDa] | apparent stoichiometry of G-actin binding (G-actin; Superdex 200, pH 8, calibrated with globular proteins) [actins]
1 | B1 | could recover recombinant Crm1 from solution in a pulldown assay |  | 
2 | B2 |  | 139.8 | 3.0
